Patent publication US20110165145A1 (published 2011)

B1: M0072-E03 IgG (parental) (antibody, V domains shown)
VH: EVQLLESGGGLVQPGGSLRLSCAASGFTFSEYEMSWVRQAPGKGLEWVSSIYSSGGWTKYTDSVKGRFTISRDNSKNTLYLQMNSLRAEDTAVYYCAKGVHYDSSGLPIDWYFDLWGRGTLVTVSS
VL: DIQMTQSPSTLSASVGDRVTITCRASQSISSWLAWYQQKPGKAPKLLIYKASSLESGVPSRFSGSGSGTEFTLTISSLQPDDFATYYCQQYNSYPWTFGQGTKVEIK
B2: M0072-C06 IgG (parental) (antibody, V domains shown)
VH: EVQLLESGGGLVQPGGSLRLSCAASGFTFSAYIMTWVRQAPGKGLEWVSSISPSGGYTVYADSVKGRFTISRDNSKNTLYLQMNSLRAEDTAVYYCARDSGFGDPFDYWGQGTMVTVSS
VL: DIQMTQSPSSLSASVGDRVTITCRASQSIRNYLNWYQQKPGKAPKLLIYAASKLEDGVPSRFSGSGTGTDFTLTIRSLQPEDFASYFCQQSYSSPGITFGPGTKVEIK
B3: M0072-G06 IgG (parental) (antibody, V domains shown)
VH: EVQLLESGGGLVQPGGSLRLSCAASGFTFSEYVMWWVRQAPGKGLEWVSVISPSGGYTVYADSVKGRFTISRDNSKNTLYLQMNSLRAEDTAVYYCARDRGGATTLDYWGQGTLVTVSS
VL: DIQMTQSPSTLSASVGDRVTITCRASQTISSWLAWYQQKPGKAPKLMIYKAASLGSEVPSRFSGSGSGTEFTLTISSLQPEDFSTYYCQQYKTYPVTFGQGTRLEIK
B4: M0070-H08 IgG (parental) (antibody, V domains shown)
VH: EVQLLESGGGLVQPGGSLRLSCAASGFTFSRYWMIWVRQAPGKGLEWVSSIRSSGETKYADSVKGRFTISRDNSKNTLYLQMNSLRAEDTAVYYCARGPLSDYYDSSGYYFDAFDIWGQGTMVTVSS
VL: DIQMTQSPSSLSASAGDRVTITCRASQSISSYLNWYQQKPGKAPNLLIYTTSNLQGGVPSRFSGSGSGTDFTLTISSLQPEDFATYYCQQGYSFPLTFGGGTKVEIK
B5: M0072-E03 Fab (Fab, V domains shown)
VH: B1 VH
VL: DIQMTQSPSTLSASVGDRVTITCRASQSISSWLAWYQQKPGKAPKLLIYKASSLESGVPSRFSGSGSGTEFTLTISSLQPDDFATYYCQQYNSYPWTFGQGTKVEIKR
notes: soluble Fab (sFab); also called R0032-C03
B6: M0068-E03 Fab (Fab, V domains shown)
VH: EVQLLESGGGLVQPGGSLRLSCAASGFTFSEYVMAWVRQAPGKGLEWVSSIVSSGGYTKYADSVKGRFTISRDNSKNTLYLQMNSLRAEDTAVYYCAKDMTYSGDAFDVWGQGTMVTVSS
VL: DIQMTQSPSSLSASVGDRVTITCRASQSINTYLNWYQQKPGKAPKVLIHAASTLESGVPSRFSGSGSATEFTLTISSLQPEDFATFYCQQSYSVPFTFGPGTRLSSKR
notes: soluble Fab (sFab); heavy constant part carries His6 and myc tags; also called R0032-C01
B7: M0072-C06 Fab (Fab, V domains shown)
VH: B2 VH
VL: DIQMTQSPSSLSASVGDRVTITCRASQSIRNYLNWYQQKPGKAPKLLIYAASKLEDGVPSRFSGSGTGTDFTLTIRSLQPEDFASYFCQQSYSSPGITFGPGTKVEIKR
notes: soluble Fab (sFab); also called R0032-A09
B8: M0033-E05 Fab (Fab, V domains shown)
VH: EVQLLESGGGLVQPGGSLRLSCAASGFTFSHYSMWWVRQAPGKGLEWVSYIGPSGGHTRYADSVKGRFTISRDNSKNTLYLQMNSLRAEDTAVYYCARGLYYYDSSSVTHAFDLWGQGTMVTVSS
VL: DIQMTQSPSSLSASVGDRVTISCRASQGITNYLVWFQQKPGKAPRLLIYDASTLESGVPSRFSGSGSGTDFTLTISSLQPEDFATYYCQQADGFPLTFGEGTKVEMKR
notes: soluble Fab (sFab); also called R0032-A05
B9: M0072-G06 Fab (Fab, V domains shown)
VH: B3 VH
VL: DIQMTQSPSTLSASVGDRVTITCRASQTISSWLAWYQQKPGKAPKLMIYKAASLGSEVPSRFSGSGSGTEFTLTISSLQPEDFSTYYCQQYKTYPVTFGQGTRLEIKR
notes: soluble Fab (sFab); also called R0032-C05
B10: M0070-H08 Fab (Fab, V domains shown)
VH: B4 VH
VL: DIQMTQSPSSLSASAGDRVTITCRASQSISSYLNWYQQKPGKAPNLLIYTTSNLQGGVPSRFSGSGSGTDFTLTISSLQPEDFATYYCQQGYSFPLTFGGGTKVEIKR
notes: soluble Fab (sFab); also called R0032-A07
B11: M0080-G03 Fab (Fab, V domains shown)
VH: EVQLLESGGGLVQPGGSLRLSCAASGFTFSFYQMMWVRQAPGKGLEWVSSISPSGGRTYYADSVKGRFTISRDNSKNTLYLQMNSLRAEDTAVYYCAKDIGLGYCSSTSCYTGTPLDYWGQGTLVTVSS
VL: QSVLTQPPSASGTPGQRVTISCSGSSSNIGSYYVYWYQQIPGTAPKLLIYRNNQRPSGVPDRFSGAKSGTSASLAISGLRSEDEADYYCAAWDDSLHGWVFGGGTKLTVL
B12: M0073-C11 Fab (Fab, V domains shown)
VH: EVQLLESGGGLVQPGGSLRLSCAASGFTFSPYDMWWVRQAPGKGLEWVSSISSSGGITAYADSVKGRFTISRDNSKNTLYLQMNSLRAEDTAVYYCARAGYSSSWGYYYYGMDVWGQGTTVTVSS
VL: QSALTQPPSVSVSPGQTASITCSGDRLGDKYASWYQQKPGQSPVLVIYQDTKRPSGIPERFSGSNSGSTATLTISGTQAMDEADYYCQAWDSSTVVFGGGTKLTVL

These binders were tested against T1, IGF-IIE (amino acids 1-104 of pro-IGF-II) (human, UniProt P01344 25-128) (assay: SPR, IgG on Protein G', then ligand, then BP; competitor BP2; 0 = no significant competition, 5 = competes strongly).
T1 construct: Biotinylated in the selections; also called IGF-IIE (104aa)
T1 sequence (P01344 25-128): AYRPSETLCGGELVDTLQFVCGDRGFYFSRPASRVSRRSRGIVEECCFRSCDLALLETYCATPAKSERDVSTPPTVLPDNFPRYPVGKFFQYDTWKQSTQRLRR
Experimental: (§1) BIACORE® T100 and a CM5 chip coated with Protein G were utilised to set up following assay. Approximately 1000 RU of Protein G′ was immobilized on a CM5 chip using standard amine chemistry immobilization method.
(§2) 4) Protein G′ surface was finally regenerated by injection of 10 mM Glycine pH 1.5-injected at 30 ul/min for 60 sec.

competition score [score 0-5] | Binder
3 | B1
2 | B2
2 | B3
2 | B4

These binders were tested against T2, insulin-like growth factor II (IGF-II), amino acids 1-67 (human, UniProt P01344 25-91) in the same assay as above.
T2 construct: recombinant; also called IGF-II (67aa); IGF2
T2 sequence (P01344 25-91): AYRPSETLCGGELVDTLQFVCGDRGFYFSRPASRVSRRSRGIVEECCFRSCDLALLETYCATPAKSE
Experimental: as §1, §2

competition score [score 0-5] | Binder
4 | B1
3 | B2
2 | B3
3 | B4

Each binder was assayed against T1, IGF-IIE (amino acids 1-104 of …) (assay: SPR, IgG on Protein G', then ligand, then BP; competitor BP4; 0 = no significant competition, 5 = competes strongly).
Experimental: as §1, §2

competition score [score 0-5] | Binder
3 | B1
1 | B2
1 | B3
1 | B4

The binders below were run against T2, insulin-like growth factor II (IGF-II), … in the same assay as above.
Experimental: as §1, §2

competition score [score 0-5] | Binder
4 | B1
2 | B2
1 | B3
2 | B4

The binders below were run against T1, IGF-IIE (amino acids 1-104 of …) (assay: SPR (Flexchip), Fab, 1st of duplicate).

Kd [nM] | Binder
0.096 | B5
0.66 | B6
0.52 | B7
0.87 | B8
0.56 | B9
0.36 | B10

The binders below were run against T2, insulin-like growth factor II (IGF-II), … (assay: SPR (Flexchip), Fab, 1st of duplicate).

Kd [nM] | Binder
0.75 | B5
0.93 | B6
5.2 | B7
0.58 | B9
3.3 | B10

The binders below were run against T1, IGF-IIE (amino acids 1-104 of …) (assay: competition SPR (BIACORE T100), affinity in solution, free ligand read on huIR-A ECD; measurement 2).
Experimental: (§3) Competition SPR (BIACORE®) was performed under conditions of partially mass-transport limited conditions according to previously described methodology (Nieba et al., 1996). Approximately 16,700 relative response units (RU) of huIR-A (-exon11) ectodomain was coupled by standard amine chemistry to a BIACORE® CM5 chip sensor. Uncoated flow-cell surface was used as a reference. […] Regeneration of the surface was achieved by injection of 30 ul NaCltrate/NaCl pH 4.5. […] These Req estimates were subsequently plotted against total concentrations of Fab used and the resulting inhibition curve was utilised to calculate dissociation constant (KD).

Kd [nM] | Binder
21.2 | B11
1.05 | B7
19.1 | B12

The binders below were run against T2, insulin-like growth factor II (IGF-II), … in the same assay as above.
Experimental: as §3

Kd [nM] | Binder
2.52 | B7

The binders below were run against insulin-like growth factor I (IGF-I) (UniProt P05019 49-118) (assay: cell-based or functional assay).
Sequence of insulin-like growth factor I (IGF-I) (P05019 49-118 limits assumed): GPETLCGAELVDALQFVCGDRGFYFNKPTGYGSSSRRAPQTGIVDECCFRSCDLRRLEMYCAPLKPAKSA

IGF-I stimulated Ba/F3 cell proliferation, sFab at 50 µg/ml [% inhibition] | Binder
~30 | B5
~30 | B6
~30 | B7
~30 | B9

These binders were tested against T1, IGF-IIE (amino acids 1-104 of …) (assay: cell-based or functional assay).

IC50, IGF-IIE stimulated Ba/F3 cell proliferation (MTS) [µg/mL] | Binder
5.74 | B6
2.3 | B7
2.5 | B9

What follows are binders tested against T2, insulin-like growth factor II (IGF-II), … (assay: cell-based or functional assay).

IC50, IGF-II stimulated Ba/F3 cell proliferation (MTS) [µg/mL] | Binder
2.27 | B6
5.12 | B7
8.7 | B9

What follows are binders tested against T1, IGF-IIE (amino acids 1-104 of …) (assay: SPR (Flexchip), Fab, 2nd of duplicate).

Kd [nM] | Binder
0.22 | B5
0.89 | B9
0.39 | B10

What follows are binders tested against T2, insulin-like growth factor II (IGF-II), … (assay: SPR (Flexchip), Fab, 2nd of duplicate).

Kd [nM] | Binder
0.3 | B5
0.7 | B7
5.5 | B8
1.4 | B9
1.1 | B10

These binders were tested against T1, IGF-IIE (amino acids 1-104 of …) (assay: competition SPR (BIACORE T100), affinity in solution, free ligand read on huIR-A ECD; measurement 1).
Experimental: as §3

Kd [nM] | Binder
5.32 | B5
29.3 | B11
3.95 | B7
20.2 | B12
6.36 | B9
4.83 | B10

These binders were tested against T2, insulin-like growth factor II (IGF-II), … in the same assay as above.
Experimental: as §3

Kd [nM] | Binder
2.62 | B5
1.64 | B7
3.99 | B9
3.24 | B10
